Laboratory results: patent US20090148408A1

Biological target: envelope glycoproteins of HIV-1HxB2 strain on Env-pseudotyped luciferase reporter virus (HIV-1 HxB2) (UniProt P04578)
Experiment: cell-based or functional assay

| Substance | inhibition of HIV-1 entry (luciferase activity at 48 hours), co-incubation of L. jensenii Xna-651 bacteria at 2.5x10^8/ml with virus and HeLa CD4-CXCR4 cells [%] | inhibition of HIV-1 entry (luciferase activity at 48 hours), co-incubation of L. jensenii Xna-651 bacteria at 5x10^8/ml with virus and HeLa CD4-CXCR4 cells [%] |
| --- | --- | --- |
| 2D-CD4 secreted by L. jensenii harboring pOSEL651 (P23 promoter-CbsAss-2D-CD4) (from UniProt P01730 26-208) | 79 | – |
| 2D-CD4 secreted by L. jensenii harboring pOSEL651 (P23 promoter-CbsAss-2D-CD4) (from UniProt P01730 26-208) (receptor) | – | 90 |
